The results in this text go back to patent EP0904107B1.

pKd: −log10 of the molar value.

Assay [1] addresses FcRn of the neonatal mouse intestine (mouse) (UniProt Q61559). Nature of the assay: cell-based or functional assay.
Assay [2] concerns the target recombinant soluble mouse FcRn (mouse) (UniProt Q61559). Nature of the assay: inhibition of 125I-sFcRn binding to murine IgG1-Sepharose; molar ratio of inhibitor/FcRn 1/500.
The target is the same in assay [3]. The assay can be described thus: inhibition of 125I-sFcRn binding to murine IgG1-Sepharose; molar ratio of inhibitor/FcRn 1/1000.
For assay [4] the target is unchanged. The assay can be described thus: SPR (BIAcore 2000), FcRn immobilised on CM5 chip, purified Fc-hinge fragment in flow, pH 6.0.

Take “Fc fragment produced by papain digestion of murine IgG1 (from UniProt P01868 98-324)”: in assay [1], the Inhibition of transmission (%) is 62.5%.

As for “Fc-hybrid: heterodimer of WT Fc-hinge and HQ-310/HN-433 mutant”, in assay [1], the Inhibition of transmission (%) amounted to 21.5%.

In assay [1], HN-433 mutant Fc-hinge fragment yielded an Inhibition of transmission (%) of 44.4%.

For the substance HQ-310 mutant Fc-hinge fragment, in assay [1], the Inhibition of transmission (%) was found to be 8.9%.

HQ-310/HN-433 mutant Fc-hinge fragment gave an Inhibition of transmission (%) in assay [1] of 5.4%. Further, the % inhibition in assay [2] was 0.2%; in assay [3], 4%.

Take I-253 mutant Fc-hinge fragment: the Inhibition of transmission (%) in assay [1] worked out at 20.2%. The figures for the % inhibition in assay [2] and in assay [3] were 2.3% and 6.5%, respectively.

In turn, “bovine serum albumin (from UniProt P02769 25-607)” registered an Inhibition of transmission (%) in assay [1] of 8.9%.

Turning to “murine IgG1 (complete glycosylated IgG1 molecule) (antibody)”, in assay [1], the Inhibition of transmission (%) was found to be 51.4%. Besides, the % inhibition was 24.7% in assay [2] and 45.6% in assay [3].

In assay [1], “wild type (WT) Fc-hinge fragment derived from murine IgG1” showed an Inhibition of transmission (%) of 55.3%. In addition, the % inhibition in assay [2] is 18.4%. Further, in assay [4], the negative logarithm of the Kd (pKd) was 8.13, the koff was 0.00461 s⁻¹ and the kon worked out at 620000 M⁻¹ s⁻¹. For the same substance, the % inhibition in assay [3] was 34.1%.

By % inhibition is commonly meant the drop in the measured response relative to a control, in per cent. What is called pKd is the negative decadic logarithm of the Kd, by convention in mol/L. What is called koff is a measure of how fast the partners let go of each other. For orientation: kon means the second-order rate constant of association.
